Experimental data: the DeepSol protein solubility set

Assay: soluble on expression in E. coli; label from the status in PepcDB or PDB records

Row | Sequence | soluble on expression in E. coli
1 | MSNVQNASRSSAFAAVEGDHWVESLDDGRHVLIRPLREEDRERERQFINRLSPATRHFRFLGEIKEASPALLDQLMDIDYQQSMAFVALVHEDGELREVGISRYAACCEEGQCECAVTIADDYQGLGLDAVLMRHLIDVARRNGFRQMYSVDSAANRAMRDLCCALGFVGQRDPDDSTQVIHRLAL | not soluble
2 | MVSTLKRDEALFELIALEEKRQREGLELIASENFVSKQVREAVGSVLTNKYAEGYPGARYYGGCEVIDRVESLAIERAKALFGAAWANVQPHSGSQANMAVYMALMEPGDTLMGMDLAAGGHLTHGSRVNFSGKLYKVVSYGVRPDTELIDLEEVRRLALEHRPKVIVAGASAYPRFWDFKAFREIADEVGAYLVVDMAHFAGLVAAGLHPNPLPYAHVVTSTTHKTLRGPRGGLILSNDPELGKRIDKLIFPGIQGGPLEHVIAGKAVAFFEALQPEFKEYSRLVVENAKRLAEELARRGYRIVTGGTDNHLFLVDLRPKGLTGKEAEERLDAVGITVNKNAIPFDPKPPRVTSGIRIGTPAITTRGFTPEEMPLVAELIDRALLEGPSEALREEVRRLALAHPMP | soluble
3 | MRGSHHHHHHGRSLNPLSTPQFDSTDETPASYNLAVRRAAPAVVNVYNRGLNTNSHNQLEIRTLGSGVIMDQRGYIITNKHVINDADQIIVALQDGRVFEALLVGSDSLTDLAVLKINATGGLPTIPINARRVPHIGDVVLAIGNPYNLGQTITQGIISATGRIGLNPTGRQNFLQTDASINPGNSGGALVNSLGELMGINTLSFDKSNDGETPEGIGFAIPFQLATKIMDKLIRDGRVIRGYIGIGGREIAPLHAQGGGIDQLQGIVVNEVSPDGPAANAGIQVNDLIISVDNKPAISALETMAQVAEIRPGSVIPVVVMRDDKQLTLQVTIQEYPATN | soluble
4 | MAHHHHHHMENKENLRNQQEFNQLCRILRLVEGDPGQVVKEPPNLGILIEVLQKMVKATFVKESSYQEAVDAREKWKSTDSTVETKNIMDKQRADDLVRYKITHEKLKKLLAKAKMLVSRIKEERYLAYVSRNAALEKMAKVVYGSSAEKMFRNETEFEKFLANSQGTIVGKTAKETCGMSNDKMKNVSFAGYSLVGDFFCLCVGENNNATLCDKSFSGPREEHKWTKVMFEDKLVDFAAGWFKIRGLCYVNATSGIKDVVTPENISTEIVAFNKMLGRQRDDVQIYRREAESYRQYILGRVEQVGFTDSAICTGEHQHMCVNYAQCLVSNKGIPWQLKLMEAEEDLEDVEKHNMEVHVLIGRLDKLIEKIKKAAEQLSQEMEGIDVAVEKVQLLEEEIEENETTGKSEATAGEFNDNAQPEEGSLDKCEYWGMFSILFGVVAFSLV | not soluble
5 | MIKNGTLKPGDKLLPVHQLAEQFQVGRSAVREALSALRAMGLIEMKQGEGTYVKNFDSSSLTKSLNNRLLMKKEDILNLLEVRKVLEVGAVRVAAAKRTEDNLQNMKHWLDEMAKSIGDEKAGEKADFQFHMGIAESSHNNILLELMNHVSEMIAETIGESRRIILYGEQTTSERLIEEHQVIYDAVLKQDVELAQQAMLDHLTNVEHIVTGKNDINS | not soluble
6 | MGSSHHHHHHSSGLVPRGSHMQIHTLTIRHGRSDPETVRSLLGQDQVLVVDYDAIHHHVINTAEYTYLSHMFDIIVLNLSGKLNDIIDTIMAGAAMVVIDPSVQEKRLREFFDITENIAMPYRGDGHSEAFSQLGGQYFVTDREIGYPFKLAYSTTDISGDRYIRVLDFPQDISDMIFERA | soluble
7 | MGHHHHHHSHMSHIFDASVLAPHIPSNLPDNFKVRPLAKDDFSKGYVDLLSQLTSVGNLDQEAFEKRFEAMRTSVPNYHIVVIEDSNSQKVVASASLVVEMKFIHGAGSRGRVEDVVVDTEMRRQKLGAVLLKTLVSLGKSLGVYKISLECVPELLPFYSQFGFQDDCNFMTQRF | not soluble
8 | MNNEFLQTEEDIVRMLRTVYDPEIPVNVYDLGLIYNVDVGADGFVTVTMTLTAPNCPAADFIIEDVRMKVESVKGVKGVKIDLTFEPEWNKDMMSEEAMLELGFL | not soluble
9 | MSLSIPADIASLISDKYKSAFDNGNLKFIQTETTKTKDPKTSMPYLISHMPSLIEKPERGQTPEGEDPLGKPEEELTVIPEFGGADNKAYKLLLNKFPVIPGHTLLVTNEYQHQTDALTPTDLLTAYKLLCALDNEESDKRHMVFYNSGPASGSSLDHKHLQILQMPEKFVTFQDRLCNGKEHFLPTFNTEPLQDAKVSFAHFVLPMPESEETVDEDLLAMCYISILQRALTFFQDWLNENPELKKSYNLMLTKEWICVVPRSKAFSDEMKIGFNSTGYCGMILTKNDEVFSKITEKPELINDILLECGFPNTSGQKPNEYNYEGHHHHHH | soluble
10 | MGSSHHHHHHSSGRENLYFQGMRHKIRLIDFILLRFIEERMKVARDVAKEKKKTDSPIVIRDIEEQKIKEILDRTDLNPVRMRRIFEEIMKLAKEEEYRLLGISKTVAVLGPMGSFSDEMAMKLIGSRIPLKYCSTTDEIIEMVEKGEVDYGIVPIENSTYGTVIPVLDALLNHEVEVFGEAKLEIHHCLVAKKKLDLKEIKRIYSHPQAISQSLGFINTYLSHAEIRYTSSTSDAVNLLDDESAAIMSESAAKMYGLLILRRSIQDLKEKNITRFYIIRRKTGKMEGKYTSLFFGVQDRPGSLKAVLDIFASRGINLRKLESRPARTFLGDYVFFVEVEAPLKEEDIRDLERVTAFYKIIGVFDEVEELDVFK | soluble
11 | MVRIDLGIKGKKVIVTAASKGIGFATAKRFLEEGAKVIISSHDENNLRKAYERLKNLGEVNYIIADLTKPSDVENLIKSGYSTLGGLDVLVYVTGSPKPGNLFELTNEDWINAFYLLLMSAVIAVREAGKLMKSGGRIILSTSMTLKEPLPNLDLSNVVRLSLAGLIKVAARELGEKGILVNGVMPGWTLTDRVDQLVKDRAKREGRSEEEIIRDITRDVPLKRIGKPEEVANVILFLASELSTYVNGVLIPVDGGLIKATL | soluble
12 | MEKKAFFQQLDERTDIRYTDSGLKIFRLKFPRAHLRLCNVKIDFGSRDVCIRAESGDTLLPYGTAHFLEHLLFWHNGRNLYSDFFAHGALLNAFTTYTDTNFMFTSLPDRLRQTIPILLDALWNHSFDKKIVAQEKAVITSEIQTAHLNHQLSYHYQLISMLSPSSPAAVFPAGRIEDIEALDISDLQKAYKAAYQAHRMTLFLIGGSENTETLLPPHLQLEKRPDYHAERKIIPACPPVLSQKMMLGDEERMEDTWTGLQIGALPGQNDLLSIKLYWDIAARILFQLDSPFFQEIQQTYRLEIDRLSAETYIYEDGGFLILHSQGTHSSAYIDVASYYVTQKKEQVAAWLQYGKDSLTDAIIYDSDYVRKCFEWAAECDRCDCSFLDMYHIIQDMDAQVFLSLIDAMASSNKAIIHVSQKEAIRQ | not soluble
13 | MSLNVLSVSSEIYPLIKTGGLADVVGALPIALEAHGVRTRTLIPGYPAVKAAVTDPVKCFEFTDLLGEKADLLEVQHERLDLLILDAPAYYERSGGPYLGQTGKDYPDNWKRFAALSLAAARIGAGVLPGWRPDMVHAHDWQAAMTPVYMRYAETPEIPSLLTIHNIAFQGQFGANIFSKLALPAHAFGMEGIEYYNDVSFLKGGLQTATALSTVSPSYAEEILTAEFGMGLEGVIGSRAHVLHGIVNGIDADVWNPATDHLIHDNYSAANLKNRALNKKAVAEHFRIDDDGSPLFCVISRLTWQKGIDLMAEAVDEIVSLGGRLVVLGAGDVALEGALLAAASRHHGRVGVAIGYNEPLSHLMQAGCDAIIIPSRFEPCGLTQLYALRYGCIPVVARTGGLADTVIDANHAALASKAATGVQFSPVTLDGLKQAIRRTVRYYHDPKLWTQMQKLGMKSDVSWEKSAGLYAALYSQLISKGHEGHHHHHH | soluble
14 | MGSDKIHHHHHHMKEKTVAIFNGYYIPHLGGVERYTYNIAKKLTEKGYRVIIITTQHDENLTNEEIQEGIKIYRLPIKNLWKNRYPFLKKNRIYHSLIEKIEAESIDYYVANTRFHLPAMLGVKMAKAKGKEAIVIEHGSSYLTLNNPVLDFMLRKIEQLLIGRVKKDTSLFYGVSNEASEWLKTFDIKAKGVLPNAVAVDEYFNQKIEKDEKKLTISYAGRLIPQMKGVEILLSTFSKLSKERKNLELIIAGDGPLLNEVKRKYSQKNIKFLGYVPYEKVLEIDAKSDVFVLMSRSEGFATAMLEAAMLENVIITTPTVGGARDIMPDETYGYIIENNETKLFETLTKVLDNKEHMRLMQKKISKNVLENFTWEQSAKQFIKVFNELDEK | not soluble
15 | MSLSAHEIRELFLSFFEKKGHTRVKSAPLVPENDPTLLFVNAGMVPFKNVFLGLEKRPYKRATSCQKCLRVSGKHNDLEQVGYTSRHHTFFEMLGNFSFGDYFKKEAIEYAWEFVTEVLKLPKEKLYVSVYKDDEEAYRIWNEHIGIPSERIWRLGEEDNFWQMGDVGPCGPSSEIYVDRGEEYEGDERYLEIWNLVFMQYNRDENGVLTPLPHPNIDTGMGLERIASVLQGKNSNFEIDIIFPLIQFGEEVSGKKYGEKFETDVALRVIADHLRAITFAISDGVIPSNEGRGYVIRRILRRAMRFGYKLGIENPFLYKGVDLVVDIMKEPYPELELSREFVKGIVKGEEKRFIKTLKAGMEYIQEVIQKALEEGRKTLSGKEVFTAYDTYGFPVDLIDEIAREKGLGIDLEGFQCELEEQRERARKHFKVEAKKVKPVYSHLKELGKTSAFVGAAALEHHHHHH | soluble
16 | MGSDKIHHHHHHMRNPDIGIDDLTALFIADTPLIDVRAPVEFTQGSLPGAVNLPILNDEERALVGTTYKQQGSEAAIKLGYEMVSGSVKQNRLQQWLDFIHQHPRAILYCFRGGKRSQITQQWLRDTGIDSPLITGGYKRARQFLISTIDRFSEHRKLLVITGPTGSGKTRLIHDISNSHPVLDIEALARHRGSAFGGMSVPQPSQIDFENHLAVNLLKLEQNNLSEPVIVEDESRHTGKVYLPDSFFHHLRNSEIIWVDEPLATRVDNIFEDYILTTPIGQAQRIRQAIPPLASTVETREILRQQARQLFDKYAGALQAISKKLGGDRFQEVSEDLENARSDFENKNEIQSNKIWIEKLVRYYYDPLYLGSLQRRRVNPCFKGSGQAVMDYLQARK | not soluble
17 | SLGHWQLASKPTVLKGLPASTGVAIGEFWFDNTQPSLSDVFPSSTLDKEREQELLLVAIERALNDFRRMRKKFDSEINKDALAIFDLFTHLLNDPMLRGDLKKQIEKGDRADWALRQVVETYSNRFARMSDVYLRERAQDIRELGQRLLYFLHNSEQENAAIDRPIILVANELTATLLASVPKEHLLAVVSLEGGANSHAAILSRALGVPAVMGANINTDVVNGKLGIVDGYTGEIFLEPNRQLLREYRSLVSEESELFAMVNKDLA | not soluble
18 | MAHHHHHHMGKKKVGEIQRSEDFCIPAGDRDANSALPAEEWPLLLKNYDKMNVRSTHFTLLECGWSPLRRPLAEYIKYGMINMDKPSNPSSHEVVSWIKRILKCDKTGHAGTLDPKVTGALIICTDRATRLVKSQQNAGKTYIGVLRLHDTVSQKKVDAALQRLTGPCFQRPPLIAAVKRQLRIRNIYSNQLIEYDKHRHLAVFETHCEAGTYIRTLCVHVGLILGAGGHMEELRRIRTGVITENDHLSTMHDVMDAQWLYENEKDDTYLRRVILPCEYLLSNHKRIVVKDSAVNAVCYGAKLMIPGLARFDNGIERDDVVVLMTTKGEAIALAYAEMTTSQMASVDHGIVARSKRVIMDRDTYPRRWGLGPIAVKKRSMMKDGLLDKYGRPQSNTPSDWFYVDYGGVKTNAEGVQYGQAPSKVGGVKRQRVPDSDDD | not soluble
